Experimental findings from publication PMC5376981 (Scientific Reports, 2014) are described below.

Changes are numbered by the printed parent chain.

The chains are these.
B1: VHH905 (VHH)
VHH: QVQLQESGGGLVQAGGSLRLSCAASGRTFSSYAMGWFRQAPGKEREFVAAISWNGGSTYYADSVKGRFTISRDNAENTGYLQMNSLKPEDTAVYYCAANDLMVPELLMPRVETYDYWGQGTQVTVSS
B2: VHH891 (VHH)
VHH: QVQLQESGGGLVQTGDSLRLSCAASGRTFSSYAMGWFRQAPGKEREFVAAITWGDGSADYADSVKGRFTISRDNAENTVYLQMNSLKPEDTAVYYCAAETVGAPIYTLGYSEAYDYWGQGTQVTVSS
B3: VHH859 (VHH)
VHH: B1 VHH with G56S, E76K, G79V, M102L, P109S, T113V
B4: VHH879 (VHH)
VHH: B1 VHH with S31D, E44D, N54S, G56D, S57R, E76K, G79V, Y95H, T113S
B5: VHH883 (VHH)
VHH: B1 VHH with N54S, G56D, S57T, E76K, G79V, Y80S, E105A, V111L, T113S
B6: VHH880 (VHH)
VHH: B1 VHH with S31D, E44D, N54S, G56D, S57R, G79V, Y95H, T113S
B7: VHH860 (VHH)
VHH: B1 VHH with T28A, S31D, E46D, S57N, A61S, G79V, M102A
B8: VHH884 (VHH)
VHH: B1 VHH with S31N, V64A, G79V, Y95R
B9: VHH867 (VHH)
VHH: QVQLQESGGGLVQAGGSLRLSCAASGFTLDDYGIGWFRQAPGKEREGVSFISSSDGTTDYADSVKGRFTISSDNAKNTVYLQMNSLKPEDTAVYYCAAVEQRVPFLSVLHEAIYDYWGQGTQVTVSS
B10: VHH889 (VHH)
VHH: QVQLQESGGGLVQAGGSLRLSCAASGRSFSSYAMGWFRQAPGKEREFVATITWSGGSTYYADSVKGRFTISGDSAENTVYLQMNSLKPEDTAVYYCAADETSAPLYRAYEAQYDYWGQGTQVTVSS
B11: VHH871 (VHH)
VHH: QVQLQESGGGLVQAGGSLRLSCAASGSIFSIHAMGWYRQAPGKQRELVAAITSGGSTNYGDSVKGRFTISEDNAKNTVYLQMNGLKPEDTAVYYCAADNDGLGYVYWGQGTQVTVSS
B12: VHH863 (VHH)
VHH: QVQLQESGGGLVQTGGSLRLSCAASGRTFMDYVMGWFRQAPGKEREFVASISWTDSTRYTDSVKGRFTASRDDAEATVYLQMNNLQFEDTAVYYCARGAGRGHSVSAGDYVYWGQGTQVTVSS
B13: VHH864 (VHH)
VHH: B12 VHH with E75K
B14: VHH893 (VHH)
VHH: QVQLQESGGGLVQAGGSLRLSCAASGFTFDDYAIGWFRQAPGKEREGVSCISSGDGGTYYADSVKGRFTISSDNAENTVALQMNSLKPEDTAVYYCAAVYGSCWDGLLYRTDSYEYDGWGQGTQVTVSS
B15: VHH895 (VHH)
VHH: B1 VHH with L20V, T28A, F29L, S31D, A40T, S57N, G79V, M102A, E105G
B16: VHH897 (VHH)
VHH: B1 VHH with L20I, S31D, G56D, S57N, E76K, G79V, M102A, E105G

A word on the Kd: it is the equilibrium constant for the complex coming apart. In general, koff refers to the rate constant with which the complex falls apart. As a reminder, the kon is a measure of how fast the partners come together.

In the first assay the target is 3D7-DBL1X-3X (Plasmodium falciparum 3D7, UniProt Q8I639, strain). In words: ELISA.
On to B1, for which the binding result is recorded as “binds”.

A further assay has as its target 3D7-DBL1X (Plasmodium falciparum 3D7, UniProt Q8I639, strain). As to the kind of experiment: ELISA. (An ELISA detects its analyte on a solid surface through an enzyme-linked reagent.)
As to B1, the binding result is given as “binds”.

The next assay deals with 3D7-DBL2X (Plasmodium falciparum 3D7, UniProt Q8I639, strain). As to the kind of experiment: ELISA.
With B2, the binding result was “no binding (tested: 0.3 µg/ml)”.

Take B3: the binding result is given as “no binding (tested: 0.3 µg/ml)”.

B4: the binding result is on record as “no binding (tested: 0.3 µg/ml)”.

As for B5, the binding result is reported as “no binding (tested: 0.3 µg/ml)”.

For B6, the binding result was “no binding (tested: 0.3 µg/ml)”.

Take B7: the binding result was “no binding (tested: 0.3 µg/ml)”.

Consider B8, for which the binding result is listed as “no binding (tested: 0.3 µg/ml)”.

In the case of B9, the binding result is listed as “no binding (tested: 0.3 µg/ml)”.

As for B10, the binding result is on record as “no binding (tested: 0.3 µg/ml)”.

In the case of B11, the binding result is “no binding (tested: 0.3 µg/ml)”.

A further assay concerns the target FCR3-DBL3X (Plasmodium falciparum FCR3, UniProt Q6UDW7, strain). As to the kind of experiment: ELISA.
For the molecule B2, the binding result is given as “no binding (tested: 0.3 µg/ml)”.

Consider B3, for which the binding result was “no binding (tested: 0.3 µg/ml)”.

On to B4, for which the binding result is recorded as “no binding (tested: 0.3 µg/ml)”.

As for B5, the binding result was “no binding (tested: 0.3 µg/ml)”.

B6: the binding result was “no binding (tested: 0.3 µg/ml)”.

As to B7, the binding result was “no binding (tested: 0.3 µg/ml)”.

As for B8, the binding result is “no binding (tested: 0.3 µg/ml)”.

As to B9, the binding result is listed as “no binding (tested: 0.3 µg/ml)”.

Consider B10, for which the binding result is listed as “no binding (tested: 0.3 µg/ml)”.

Regarding B11, the binding result was “no binding (tested: 0.3 µg/ml)”.

In another assay the target is FCR3-DBL6ε (Plasmodium falciparum FCR3, UniProt Q6UDW7, strain). In words: ELISA.
For the molecule B12, the binding result is reported as “no binding (tested: 0.3 µg/ml)”.

Regarding B13, the binding result is recorded as “no binding (tested: 0.3 µg/ml)”.

The target of a further assay is full-length VAR2CSA recombinant protein (3D7-DBL1X-6ε) (Plasmodium falciparum 3D7, UniProt Q8I639, strain). In words: SPR. (In general: In SPR one partner is held on a chip, and binding of the other changes the refractive index at the surface.)
On to B2, for which the Kd came to 0.7 µM, the koff was determined as 0.0014 s⁻¹ and the kon was 2050 M⁻¹ s⁻¹.

Turning to B14, the Kd is 0.027 µM, the koff came out at 0.0017 s⁻¹ and the kon turned out to be 60000 M⁻¹ s⁻¹.

For the molecule B3, the Kd is 0.3 µM, the koff was found to be 0.0032 s⁻¹ and the kon is 12000 M⁻¹ s⁻¹.

Turning to B4, the Kd is 0.019 µM, the koff worked out at 0.0015 s⁻¹ and the kon turned out to be 79000 M⁻¹ s⁻¹.

As for B5, the Kd came to 0.01 µM, the koff is 0.0017 s⁻¹ and the kon came to 170000 M⁻¹ s⁻¹.

As for B6, the Kd came to 0.1 µM, the koff came out at 0.0018 s⁻¹ and the kon amounted to 15000 M⁻¹ s⁻¹.

Consider B15, for which the Kd was found to be 0.8 µM, the koff was 87.2 s⁻¹ and the kon amounted to 1.1e+08 M⁻¹ s⁻¹.

For the molecule B7, the Kd was 0.028 µM, the koff came out at 0.0013 s⁻¹ and the kon was 46000 M⁻¹ s⁻¹.

With B16, the Kd came to 0.043 µM, the koff was 0.0013 s⁻¹ and the kon amounted to 31000 M⁻¹ s⁻¹.

For the molecule B8, the Kd amounted to 0.4 µM, the koff was 0.0036 s⁻¹ and the kon is 9860 M⁻¹ s⁻¹.

As for B9, the Kd is 0.3 µM, the koff was determined as 0.0027 s⁻¹ and the association rate constant (kon) worked out at 8690 M⁻¹ s⁻¹.

B10: the Kd was 0.7 µM, the koff came to 0.035 s⁻¹ and the kon came to 54000 M⁻¹ s⁻¹.

Regarding B12, the Kd came to 0.046 µM, the koff worked out at 0.0014 s⁻¹ and the kon is 31000 M⁻¹ s⁻¹.

B13: the Kd was 0.018 µM, the koff was found to be 0.00063 s⁻¹ and the kon was found to be 34000 M⁻¹ s⁻¹.

Turning to B11, the Kd was found to be 0.2 µM, the koff is 3.9e-05 s⁻¹ and the kon was 216 M⁻¹ s⁻¹.

In the next assay the target is native VAR2CSA on NF54-CSA infected erythrocytes (Plasmodium falciparum NF54 (parent of …, UniProt Q8I639, strain)). As to the kind of experiment: flow cytometry on cells. (A flow cytometer gives signals particle by particle.)
Consider B1, for which the binding result was “binds”.

The next assay has as its target native VAR2CSA on FCR3-CSA infected erythrocytes (Plasmodium falciparum FCR3, UniProt Q6UDW7, strain). In words: flow cytometry on cells.
B2: the binding result was “binds”.

With B14, the binding result is listed as “no binding (tested: 100 µg/ml)”.

Turning to B3, the binding result is “binds”.

Regarding B4, the binding result is “binds”.

For B5, the binding result was “binds”.

With B6, the binding result is given as “binds”.

B15: the binding result is reported as “binds”.

For B7, the binding result is recorded as “binds”.

Regarding B1, the binding result is on record as “binds”.

Turning to B16, the binding result is listed as “binds”.

B8: the binding result is listed as “binds”.

B9: the binding result was “binds”.

For the molecule B10, the binding result is recorded as “binds”.

As to B12, the binding result is given as “no binding (tested: 100 µg/ml)”.

For the molecule B13, the binding result is reported as “no binding (tested: 100 µg/ml)”.

B11: the binding result was “binds”.
